Consider 1 molecule from US20250145691A1.

This test deals with Pangolin CoV S2-37 (Pangolin CoV).

B1: Antibody SC45 Fab (Fab, V domains shown)
VH: QVQLQESGPGLVKSSETLSLTCTVSGGSISSYYWSWIRQPPGKGLEWIGCIYSSGSTNYNPSLKSRVTISVDSSKNQFSLRLNSVTAADTAVYYCARHKGTDFWSGYSFTPRGGWFDPWGQGALVSVSS
VL: DIQMTQSPSSLSASVGDRVTITCRASQSISSYLNWYQQKPGKAPKLLIYGASNLQSGVPSRFSGSGSETDFTLTISSLQPEDFASYYCQQSHSIPVTFGQGTKLEIK
Consider B1, for which the dissociation rate constant (koff) (in general, the rate constant with which the complex falls apart) amounted to 0.000923 s⁻¹ and the kon (commonly a measure of how fast the partners come together) was determined as 32100 M⁻¹ s⁻¹.
